The results in this text go back to PMC6954389 (Nucleic Acids Research, 2019).

For this assay, the target named is T1, His6-σ^A_(C170), C-terminal residues 359–528 of σ^A, wildtype (M. tuberculosis, UniProt P9WGI1 359-528).
T1 sequence: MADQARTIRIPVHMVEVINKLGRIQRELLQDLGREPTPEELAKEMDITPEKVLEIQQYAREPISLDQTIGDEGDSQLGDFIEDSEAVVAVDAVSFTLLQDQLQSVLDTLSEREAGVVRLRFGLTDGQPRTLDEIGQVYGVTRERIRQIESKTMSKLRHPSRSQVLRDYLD
As to the kind of experiment: pull-down.

B1: tagless wildtype WhiB1, purified (from His6-SUMO-WhiB1) (natural protein)
chain: MDWRHKAVCRDEDPELFFPVGNSGPALAQIADAKLVCNRCPVTTECLSWALNTGQDSGVWGGMSEDERRALKRRNARTKARTGV
Turning to B1, the binding result is given as “binds”.
